According to US6610500:

Key:
[1] = biological target: human p140 TrkA receptor (human) (UniProt P04629); test: FACScan 5C3 surface staining of 4-3.6 cells after NGF treatment at 4° C., relative to vehicle (100%); competitor mAb 5C3
[2] = biological target: human p140 TrkA receptor (human) (UniProt P04629); test: cell-based or functional assay
[3] = biological target: human p140 TrkA receptor (human) (UniProt P04629); test: FACScan 5C3 surface staining of 4-3.6 cells after NGF treatment at 37° C., relative to vehicle (100%); competitor mAb 5C3
[4] = biological target: human p140 TrkA receptor (human) (UniProt P04629); test: 125I[NGF] binding to E25 cells blocked with 5 µM unlabeled NGF (defined as background)
[5] = biological target: human p140 TrkA receptor (human) (UniProt P04629); test: Scatchard analysis of 125I[5C3] binding to E25 cells, 4° C.
[6] = biological target: human p140 TrkA receptor (human) (UniProt P04629); test: Scatchard analysis of 125I[5C3] binding to 4-3.6 cells
[7] = biological target: human p140 TrkA receptor (human) (UniProt P04629); test: 125I[NGF] binding to E25 cells after preincubation with excess unlabeled mAb 5C3
[8] = biological target: human p140 TrkA receptor (human) (UniProt P04629); test: Scatchard analysis of 125I[5C3] binding to E25 cells
[9] = biological target: human p140 TrkA receptor (human) (UniProt P04629); test: 125I[NGF] (~1 nM) binding to E25 cells after preincubation with excess unlabeled mAb 5C3; competitor unlabeled mAb 5C3
[10] = biological target: human p140 TrkA receptor (human) (UniProt P04629); test: Scatchard analysis of 125I[5C3] binding to 4-3.6 cells, 4° C.
[11] = biological target: human p140 TrkA receptor (human) (UniProt P04629); test: summary of the 125I[5C3] binding studies

Chain of UniProt P04629 (P04629 33-796): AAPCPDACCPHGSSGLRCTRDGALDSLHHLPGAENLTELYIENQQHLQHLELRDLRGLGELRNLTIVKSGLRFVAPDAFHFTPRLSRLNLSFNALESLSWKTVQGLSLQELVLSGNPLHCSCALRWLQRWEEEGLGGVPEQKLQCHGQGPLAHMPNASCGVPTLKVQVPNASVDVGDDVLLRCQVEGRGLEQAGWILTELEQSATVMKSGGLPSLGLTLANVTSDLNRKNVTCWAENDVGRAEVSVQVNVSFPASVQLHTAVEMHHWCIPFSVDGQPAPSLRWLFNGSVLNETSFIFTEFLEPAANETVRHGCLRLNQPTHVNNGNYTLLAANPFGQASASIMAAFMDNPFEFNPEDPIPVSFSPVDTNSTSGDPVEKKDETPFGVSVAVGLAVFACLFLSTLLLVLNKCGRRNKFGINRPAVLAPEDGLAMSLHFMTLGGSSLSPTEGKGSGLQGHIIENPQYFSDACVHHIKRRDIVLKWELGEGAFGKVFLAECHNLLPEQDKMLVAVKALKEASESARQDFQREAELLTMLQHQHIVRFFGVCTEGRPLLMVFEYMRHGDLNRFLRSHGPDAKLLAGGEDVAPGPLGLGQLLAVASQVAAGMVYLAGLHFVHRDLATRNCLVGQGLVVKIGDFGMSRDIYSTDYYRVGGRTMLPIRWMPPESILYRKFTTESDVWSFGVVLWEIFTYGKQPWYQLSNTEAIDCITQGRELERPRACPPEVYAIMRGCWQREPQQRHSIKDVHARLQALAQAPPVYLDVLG

Row | % 5C3 STAINING [1] [%] | FOLD INCREASE IN FOCI with respect to mIgG treated cells [2] [fold] | TYPICAL CELLS/FOCI (E25 cells in soft agar) [2] [cells/foci] | fold increase in PY of TrkA with respect to untreated cells (4-3.6 cells) [2] [fold] | fold increase in PY of TrkA with respect to untreated cells (E25 cells) [2] [fold] | % 5C3 STAINING [3] [%] | % NGF BINDING [4] [%] | Kd [5] [nM] | % 5C3 STAINING after 5C3 (0.01 µg/ml) treatment at 4° C. (receptor internalization, 4-3.6 cells) [2] [%] | % 5C3 STAINING after 5C3 (0.01 µg/ml) treatment at 37° C. (receptor internalization, 4-3.6 cells) [2] [%] | 5C3 binding sites/cell [6] [sites/cell] | % inhibition of 125I[NGF] binding [7] [%] | 5C3 binding sites/cell [8] [sites/cell] | % NGF BINDING [9] [%] | Kd [10] [nM] | Kd [11] [nM] | Substance
1 | 83 | 1.6 | 24 | 3.8 | 6.5 | 75 | 0 | – | – | – | – | – | – | – | – | – | Nerve Growth Factor (ligand)
2 | – | 1.9 | > 48 | 3.4 | 2.7 | – | – | 1.6 | 96 | 77 | 200000 | 60 | 250000 | 39.3 | 3 | 2 | anti-human TrkA monoclonal antibody 5C3
